In patent publication US20190367619A1 (ARGENX, published 2019):
Where a chain is given by its changes, count along the chain named. Where two headings read alike, the source gives them in different places.

T1: human galectin-10-His (recombinant human galectin-10 with TEV-cleavable N-terminal His-tag) (human)
T1 construct: SEC-MALLS: dimer in solution; also called Gal10-His; humanGal10-His
T1 chain: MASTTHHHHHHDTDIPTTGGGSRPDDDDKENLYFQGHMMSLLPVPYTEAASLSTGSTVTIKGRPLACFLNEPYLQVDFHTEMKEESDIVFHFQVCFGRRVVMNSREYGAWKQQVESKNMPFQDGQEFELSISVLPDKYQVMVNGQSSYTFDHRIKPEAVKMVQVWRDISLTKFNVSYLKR

T2: cynomolgus galectin-10-His, YRT isoform (cynomolgus)
T2 construct: not shown: His tag
T2 chain: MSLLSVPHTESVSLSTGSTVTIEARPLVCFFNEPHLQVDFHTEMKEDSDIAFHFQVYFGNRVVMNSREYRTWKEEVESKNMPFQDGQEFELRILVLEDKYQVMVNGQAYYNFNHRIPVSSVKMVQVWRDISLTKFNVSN

T3: cynomolgus galectin-10-His, WGS isoform (cynomolgus)
T3 construct: not shown: His tag
T3 chain: T2 chain with E23K, A24G, F31L, Y69F, R70K, T71I, R92S

T4: TEV-cleaved wild-type recombinant human galectin-10 (soluble, in Fab complexes, or as recombinant galectin-10 … (human, UniProt Q05315 1-142))
T4 sequence: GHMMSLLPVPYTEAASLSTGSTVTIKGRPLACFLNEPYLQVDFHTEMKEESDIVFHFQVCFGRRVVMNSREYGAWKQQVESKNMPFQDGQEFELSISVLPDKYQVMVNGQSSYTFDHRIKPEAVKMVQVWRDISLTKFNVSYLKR

B1: 6F11 scFv-human Fc (Fc fusion)
scFv: QVQRQESGPGLVKPSQTLSVTCTVSGGSITTGPYSWSWIRQPPGKGLEWIGYIGYSGSTYYSPSLKSRTSISRDTSNNQFSLQLSSVTPEDTAVYYCARSRSSPTTFGMDYWGKGTLVTVSSGGGGSGGGGSGGGGSSSALTQPSAVSVSLGQTARITCQGGDFGRYYVAWYTQKPGQAPVLVIYQDSERPSGIPERFSGSSSGDTATLTISGAQAEDEAEYYCQSGISSDNIVFGGGTHLTVL
notes: about 100 kDa on SDS-PAGE; also called 6F11 ScFv-hFc; not shown: CH2-CH3 constant domains of human IgG1 (vector pUPEX50)
B2: VHH 1D06 (purified, Myc-His tagged) (VHH, not shown: small tags and cut ends)
VHH: QLQLVESGGGLVQPGGSLRLSCAASENSVSTYAMGWFRQAPGKEREFVAAITRAGGNTYNADSVKGRFTISRDNAENTIYLQMNSLKPEDTAVYSCAAGPRYSTISTMFPYWGQGTQVTVSS
notes: also called 1D6
B3: 6A11 scFv-human Fc (Fc fusion)
scFv: ELQLVESGGGLVQPGGSLRLSCSASGFTFGAYAMNWVRQAPGKGLEWVSGVNSGGGLTSYGESVKGRFTISRDNAKNTLYLQMNRLNPDDTAVYYCAKSKRGAVVAGTGDDYWGQGTQVTVSSGGGGSGGGGSGGGGSSSALTQPSAVSVSLGQTARITCQGGNFGRYYVSWYQQKPGQAPVLVIYKDSERPSGIPERFSGSSSGDTATLTISGAQAEDEADYYCQSGSSSDNAVFGGGTHLTVL
notes: about 100 kDa on SDS-PAGE; also called 6A11 ScFv-hFc; not shown: CH2-CH3 constant domains of human IgG1 (vector pUPEX50)
B4: 6F05 scFv-human Fc (Fc fusion)
scFv: QLQLVESGGGLVQPGGSLRLSCAASGFTFSSYAMSWVRQAPGKGLEWVSAINSGGGSTSYADSVKGRFTISRDNAKNTLYLQMNSLKPEDTAVYYCATPGDRLWYYRYDYWGQGTQVTVSSGGGGSGGGGSGGGGSQAGLTQPPSVSGTLGKAVTISCAGTSSDIGYGNYVSWYQQLPGTAPKLLIYKVSRRASGVPDRFSGSKSGNTASLSISGLQSEDEADYYCASYRYRNNVVFGGGTHLTVL
notes: about 100 kDa on SDS-PAGE; also called 6F5; 6F05 ScFv-hFc; not shown: CH2-CH3 constant domains of human IgG1 (vector pUPEX50)

Key:
[1] = target: TEV-cleaved wild-type recombinant human galectin-10 (soluble, in Fab complexes, or as recombinant galectin-10 crystals / CLCs) (human) (UniProt Q05315); test: cell-based or functional assay
[2] = target: human galectin-10-His (recombinant human galectin-10 with TEV-cleavable N-terminal His-tag) (human); test: ELISA, scFv-hFc on coated galectin-10-His (0.2 ug/mL)
[3] = target: T1, human galectin-10-His (recombinant …); test: SPR Biacore T3000, scFv-hFc captured by anti-human Fc, galectin-10-His as analyte
Protocol: (§1) In order to determine the binding properties (on-rate/off-rate) of the scFv-human Fc panel, their binding capacity to galectin-10 was analyzed on Biacore T3000. For this purpose, a capture approach was set up. A CM5 Chip was coated with polyclonal anti-human Fc at 8000 RU, then a fixed concentration of the scFv-human Fc panel (1.5 μg/mL), diluted in HBS-EP pH7.4, were captured to reach a binding signal around 150 RU. Finally, a serial dilution of galectin-10-His (serial dilution, 1 over 2 from 5 μg/mL, 6 points of dilution) diluted in HBS-EP pH7.4 was injected. Raw data were analyzed via BIA evaluation software with a blank subtraction (4-3). The kd/KD and Rmax of each scFv-human Fc for galectin-10-His was determined using the Fit Kinetics simultaneous ka/kd/Binding with mass transfer/Local Rmax on BIA evaluation software.

[4] = target: T1, human galectin-10-His (recombinant …); test: ELISA, scFv-hFc on coated galectin-10-His (0.2 ug/mL)
Protocol: In a similar setup to that used during the initial screening, the relative binding properties of the 12 scFv-human Fc clones were analyzed by ELISA. Briefly, a Maxisorp plate was coated with galectin-10-His at 0.2 μg/mL and blocked with casein, before being incubated with a serial dilution of the scFv-human Fc fusion molecules. After several washing steps, detection of the bound scFv-human Fc was carried out with an anti-human Fc-HRP antibody. Absorbance was measured at 450 nm (reference at 620 nm) with Tecan instrument. Finally, the raw data (OD values) were plotted on GraphPad Prism 7.01. The EC50 value of each compound was calculated with a non-linear regression (log(agonist) vs. response Variable slope (four parameters)).

[5] = target: T1, human galectin-10-His (recombinant …); test: SPR Biacore T3000, scFv-hFc captured by anti-human Fc, galectin-10-His as analyte
[6] = target: T2, cynomolgus galectin-10-His, YRT isoform; test: ELISA, VHH on coated cynomolgus YRT galectin-10-His (1 ug/mL)
[7] = target: T3, cynomolgus galectin-10-His, WGS isoform; test: ELISA, VHH on coated cynomolgus WGS galectin-10-His (1 ug/mL)
[8] = target: T4, TEV-cleaved wild-type recombinant human …; test: cell-based or functional assay
[9] = target: T1, human galectin-10-His (recombinant …); test: Biacore capture approach (summary table), scFv-human Fc
Protocol: as §1

[10] = target: T1, human galectin-10-His (recombinant …); test: ELISA binding (summary table), scFv-human Fc
[11] = target: T4, TEV-cleaved wild-type recombinant human …; test: cell-based or functional assay; remark: listed apart in the source
[12] = target: T4, TEV-cleaved wild-type recombinant human …; test: cell-based or functional assay; remark: listed apart in the source

Molecule | Kd [3] [nM] | koff [3] [s⁻¹] | Bmax (OD values) [4] [OD] | EC50 [4] [nM] | Kd [5] [nM] | also measured
Isotype control, scFv-human Fc (irrelevant scFv-human Fc) (Fc fusion) |  |  |  |  |  | CLC formation (crystallization robot assay) [1]: 100%; Bmax (OD values) [2]: 0.018 OD
B1 | 2.96 | 0.0172 | 1.56 | 0.48 | > 17 | 
B2 |  |  |  |  |  | binding result [6]: no binding; binding result [7]: no binding
B3 | 0.711 | 0.124 | 1.59 | 0.01 | > 17 | 
B4 | 0.918 | 0.000117 | 2.9 | 0.02 |  | 100% Inhibition of CLC formation (Conc uM) [8]: 1 µM; 100% Solubilization of CLC (Conc uM) [8]: 4 µM; Kd [9]: 0.9 nM; koff [9]: 0.00012 s⁻¹; EC50 [10]: 0.02 nM; dissolution of in vitro grown Gal10 crystals (spinning disk confocal microscopy) [11]: ≤ 90 min; 100% Solubilization of CLC (Conc uM) [12]: 4 µM
